Assay: Insulin lispro pharmacokinetics after subcutaneous Humalog in fasted pigs with diabetes (plasma lispro by ELISA)
Format: in vivo, pig
Details: pilot study, pigs with diabetes (n = 6), fasted 4–6 h, 4 U Humalog (100 U/ml) subcutaneous, plasma lispro by Insulin Lispro ELISA (Mercodia)
Protocol: Insulin pharmacokinetics are more rapid in pigs than in humans. ^19 , ^20 , ^29 Thus, it was necessary to construct models for insulin action to be used in both open‐source systems, which model insulin action as an exponential curve. In AndroidAPS, the parameters defining the curve are time‐to‐peak action (TPA) and total duration of insulin action (DIA). ^23 Loop uses time‐to‐onset, TPA, and DIA. ^15 The pig pharmacokinetic curves for use in open‐source algorithms were determined from data obtained during a pilot study in pigs (n = 6). This experimental pharmacokinetic curve is consistent with pharmacokinetics observed in the pigs used in this study. ^20 Pigs were kept on fast 4–6 h and then injected subcutaneously with a 4 U dose of Humalog (100 U/ml, Eli Lilly). Before injection, baseline blood was sampled from an intravenous catheter line and measured using a handheld glucose monitor (Bayer Contour Next). After injection, blood was sampled from the intravenous catheter line every 5 min for the first 60 min, then every 30 min up to 4 h. Blood was collected in K2EDTA plasma tubes (Greiner‐BioOne) for analysis with ELISA. Plasma lispro concentrations were quantified using an Insulin Lispro ELISA kit (Mercodia). Pharmacodynamics were approximated by blood glucose measurements in a stable fasting state after 2–3 h (Figure 2A). […]

Substance: Humalog: Commercial rapid-acting insulin lispro formulation (100 U/ml, Eli Lilly) injected subcutaneously in pigs
- near complete exposure duration: ~2 h
- time of peak serum concentrations (sampled every 5 min for 60 min, then every 30 min up to 4 h): 20 to 25 min

Source: PMC8087942, “Full closed loop open‐source algorithm performance comparison in pigs with diabetes” (Clinical and Translational Medicine, 2021)
